The values that follow come from patent publication US20180244795A1 (DEBIOPHARM INTERNATIONAL S A, published 2018).

The target of one assay is T1, Human CD37 (human, UniProt P11049 1-281).
T1 construct: Endogenous CD37 in formalin fixed paraffin embedded Daudi, Ramos and Namalwa cell pellets and human tonsil (IHC); also called GP52-40; tetraspanin-26
T1 sequence: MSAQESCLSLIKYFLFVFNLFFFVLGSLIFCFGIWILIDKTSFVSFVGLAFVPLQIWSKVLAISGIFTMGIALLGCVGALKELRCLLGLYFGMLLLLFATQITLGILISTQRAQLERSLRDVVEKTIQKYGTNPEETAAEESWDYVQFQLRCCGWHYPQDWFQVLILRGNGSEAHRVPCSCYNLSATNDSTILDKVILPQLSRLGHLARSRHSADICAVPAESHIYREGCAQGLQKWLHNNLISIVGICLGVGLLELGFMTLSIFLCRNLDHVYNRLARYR
The assay can be described thus: IHC on FFPE CD37-positive samples (human tonsil, Daudi, Ramos, Namalwa cells). As for the experimental part:
Slides were incubated with ImmunoGen, Inc. generated 1B11-2 antibody, Leica/Novocastra NCL-CD37 antibody (clone CT1) or Leica/Novocastra muIgG1 control antibody at varying concentrations for 15 minutes. Bound antibodies were detected by incubation with the Leica Bond Refine detection system. Following the application of the antibodies, slides were incubated with Post Primary Reagent (rabbit anti-mouse IgG) for 8 minutes, Polymer (goat anti-rabbit polymer) for 8 minutes, and DAB (3,3-diaminobenzidine tetrahydrochloride) for 10 minutes. […] Slides were counterstained with hematoxylin for 5 minutes.
Purified antibody from clone 1B11-2 diluted at 8.4 μg/mL, 4.2 μg/mL, and 2.1 μg/mL in Leica Antibody Diluent (Tris-buffered saline, surfactant, and protein stabilizer with 0.35% ProClin™ 950) was used to stain CD37-positive control samples (human normal tonsil, Daudi cells, Ramos cells, and Namalwa cells). The antibody was evaluated for CD37 specificity as measured by acceptable membrane staining and specificity in CD37-positive samples. This clone was also compared with the NCL-CD37 mouse mAb (clone CT1) diluted to 4.2 μg/mL in Leica Antibody Diluent using the same CD37 positive human tissue and cells. […] A suitable staining concentration of 4.2 μg/mL was experimentally determined for 1B11-2.

Assay [1] deals with T2, hCD37-ECD-S2-Fc (amino acids 107 to 109 and 138 to 235 of human CD37 fused to murine IgG2a Fc-domain) (human).
T2 construct: Produced in HEK-293T cells; It lacks the S1 segment (amino acids 110-137) of the CD37 large extracellular domain; also called truncated hCD37-ECD-S2-Fc protein
T2 chain: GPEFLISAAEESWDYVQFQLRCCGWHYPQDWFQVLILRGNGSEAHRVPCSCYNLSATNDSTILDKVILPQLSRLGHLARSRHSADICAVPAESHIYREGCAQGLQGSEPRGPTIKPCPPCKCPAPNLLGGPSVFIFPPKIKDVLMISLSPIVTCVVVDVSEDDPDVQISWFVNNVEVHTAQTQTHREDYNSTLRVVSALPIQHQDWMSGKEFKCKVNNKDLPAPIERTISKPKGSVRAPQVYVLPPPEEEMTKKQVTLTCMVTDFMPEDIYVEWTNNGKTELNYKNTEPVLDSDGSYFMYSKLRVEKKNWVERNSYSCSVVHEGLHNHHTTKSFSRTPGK
Description: ELISA, native hCD37-ECD-S2-Fc coated on the plate, purified antibody titrated. As for the experimental part: (§1) Antibody from 1B11-2 was purified using standard protein-A chromatography. An anti-CD37 antibody sold by Leica Biosystems (product code NCL-CD37) was used for comparison. The binding of the anti-CD37 antibodies was examined by ELISA with recombinant CD37 proteins used as the antigen. Each recombinant protein was immobilized at approximately 25-100 ng/well on microtiter plates in Sodium bicarbonate coating buffer (Sigma-Aldrich) using either native or denatured conditions as described above. Plates were washed once with PBS supplemented with 0.05% Tween-20 and blocked with PBS supplemented with 1% bovine serum albumin (BSA). Plates were washed three times with PBS supplemented with 0.05% Tween-20 and purified antibodies were added to the plates. Plates were incubated for one hour at room temperature, washed three times as above, and incubated with HRP-labeled goat anti-murine secondary antibody (Jackson ImmunoResearch, diluted at 1:5,000) for one hour at room temperature. The plates were washed three times as above, and bound HRP-conjugated antibody was detected by adding the HRP-substrate TMB (Bio-FX). Plates were incubated for approximately 10 minutes, and then color development was stopped with stop solution (Bio-FX). Absorbance at 450 nm was measured for each plate in a multiplate reader. Representative results are shown in FIG. 2 for binding to native hCD37-Fc-LAGA and hCD37-LEL. […]

Assay [2] addresses T3, hCD37-Fc-LAGA (amino acids 107 to 235 of human CD37 fused to human IgG1 Fc-domain) (human).
T3 construct: Produced in HEK-293T cells
Description: ELISA, native hCD37-Fc-LAGA coated on the plate, purified antibody titrated (left panel). As for the experimental part: as §1

Assay [3] addresses T4, hCD37-ECD-Fc (amino acids 107 to 235 of human CD37 fused to murine IgG2a Fc-domain) (human).
T4 construct: Produced in HEK-293T cells
T4 chain: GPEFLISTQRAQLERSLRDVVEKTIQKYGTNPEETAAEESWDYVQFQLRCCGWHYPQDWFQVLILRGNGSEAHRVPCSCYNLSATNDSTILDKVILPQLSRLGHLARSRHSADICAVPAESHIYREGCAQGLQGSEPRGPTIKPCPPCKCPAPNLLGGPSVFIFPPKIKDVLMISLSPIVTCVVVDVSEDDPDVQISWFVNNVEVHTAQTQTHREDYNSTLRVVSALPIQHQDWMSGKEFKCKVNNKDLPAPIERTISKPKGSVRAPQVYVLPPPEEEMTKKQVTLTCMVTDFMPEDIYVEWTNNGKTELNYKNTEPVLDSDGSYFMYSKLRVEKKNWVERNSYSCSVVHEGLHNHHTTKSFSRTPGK
The assay can be described thus: Western blot after denaturing, reducing SDS PAGE (Gel C), primary 1B11-2, secondary anti-mouse F(ab)2-HRP. As for the experimental part: The ability to recognize different preparations of Fc-fused CD37-ECDs was tested in denaturing SDS PAGE followed by Western blotting for 1B11-2 (left panel), in direct comparison with a commercially available anti-CD37 antibody (Leica; right panel). Fc-fused CD37-ECD preparations were denatured by incubation in Laemmli buffer containing 70mM β-mercapto-ethanol at 100° C. for 10 min, and were separated by SDS polyacrylamide gel electrophoresis, followed by electrophoretic transfer to PVDF membranes. Membranes were blocked with 5% non-fat milk in Tris-buffered saline with 0.1% Tween-20 (TBST) for 1 hour at room temperature. Primary antibodies were applied overnight, followed by detection with secondary anti-mouse F(ab)₂ conjugated to horse radish peroxidase for 1 h at room temperature. Blots were developed using enhanced chemiluminescence detection following standard procedures. While the Leica antibody recognizes all three Fc-CD37 ECD preparations, the 1B11-2 antibody of the invention recognizes only hCD37-ECD-Fc and hCD37-Fc-LAGA, but not hCD37-ECD-S2-Fc. The hCD37-ECD-S2-Fc construct is missing the S1 segment (amino acids 110-137) of the CD37 ECD. Thus, a region of amino acids 110-137 is critical for epitope recognition by 1B11-2, but not by the Leica antibody.

B1: muCD37-1B11-2 mouse monoclonal anti-human CD37 antibody (antibody, mouse IgG1, kappa, V domains shown)
VH: EVQLLQSGPELVKPGASVKISCKASGYSFTGYFMNWVIQSHGKGLEWIGRINPYNGDTFYNQKFKGKATLTVDKSSTTAHMELLSLTSEDSAVYYCGSRGIVASSRFFDVWGAGTSVIVSS
VL: SIVMTQTPKFLLVSAGDRVTITCKASQGVSNDVDWYQQKPGQSPKLLIYYASNRYTGVPDRFTGSGYGTDFTFSISTVQAEDLAVYFCHQDYTSPTFGGGTKLEIKR
notes: Murine IgG1/kappa from hybridoma; also called antibody 1B11-2; CD37 1B11-2 Mouse mAb
Take B1: the values for the binding result (in the assay with Human CD37; in assay [1]; in assay [3]) were “binds”, “no binding (tested: 1e-7 M)” and “binds”, respectively. In addition, the “EC50 (read off the curve)” value in assay [2] is around 0.1 nM.
